21 molecules from US20210198672A1, “APTAMER FOR SCLEROSTIN AND USE THEREOF” (APTACURE THERAPEUTICS LIMITED, published 2021) can be followed below.

Substitutions are numbered along the chain they refer to.

In data set [1] the target is T1, sclerostin (SOST) (Homo sapiens, UniProt Q9BQB4 SEQ:1-190). Put plainly: ELONA; PBS, 1 mM MgCl2, RT. As to conditions: tags: His6 (stated for the SELEX protein); ELONA used purified recombinant human sclerostin. On the procedure: (§1) An Enzyme-linked OligoNucleotide Assay (ELONA) was performed to determine the binding affinity of the aptamer candidates to sclerostin (Drolet, Moon-McDermott et al. 1996). Similarly, an Enzyme-linked ImmunoSorbent Assay (ELISA) was performed to determine the binding affinity of anti-sclerostin antibody to human sclerostin (Engvall and Perlmann 1971). 160 ng purified recombinant human sclerostin was coated to 96-well microtiter plate in 100 μl PBS by incubating at 4° C. overnight. The plate was then blocked with blocking buffer (PBS, 0.1% Tween 20 and 1% BSA) for 1 h at room temperature and washed with SELEX B&W buffer (PBS, 1 mM MgCl₂, 0.1% Tween 20 and 0.1% BSA) for 4 times. The aptamer candidates were denatured at 95° C. for 10 min and rapidly cooled on ice for 10 min before use. Appropriate concentrations of biotinylated aptamers/antibody were added into each well, then added SELEX B&W buffer to 100 μl and incubated for 45 min at room temperature with continuous gentle shaking. After binding, the plate was washed with SELEX B&W buffer for 4 times to remove non-specific and very weak binding, followed by washing with PBST+0.1% BSA for 4 times. 100 μl streptavidin-HRP/goat anti-human IgG Fc-HRP (1:10000 dilute into PBST+0.1% BSA) was added to each well and incubated for 30/60 min and washed with PBST+0.1% BSA for 4 times. 50 μl TMB was added to each well and incubated for 20 min. The reaction was stopped by adding 50 μl 2 M H₂SO₄. Absorbance at 450 nm was measured with microplate reader (Stoltenburg, Krafcikova et al. 2016). Data was analyzed with Origin software (OriginLab, Northampton, Mass.). A non-linear curve fitting model Hyperbl was used to plot is the binding curve. Equation of Hyperbl model is y=P1*x/(P2+x) and P2 is the Kd value.

In data set [2] the target is T2, sclerostin (SOST), expressed from plasmid in MC3T3-E1 cells (UniProt Q9BQB4 SEQ:1-190). Briefly: cell_activity; TOP-Wnt luciferase reporter, MC3T3-E1. As for the experimental part:
(§2) MC3T3-E1 cells were seeded in 24-well plates and cells were transfected with corresponding reporter plasmid (100 ng), Wnt3a plasmid (800 ng) and sclerostin plasmid (800 ng) as necessary using FuGENE HD transfection reagent (Promega) in the following day. 10 hours after transfection, culture medium was changed to fresh medium and cells were treated with aptamers/antibody. 24 hours after treatment, each well of cells was lysed with 100 μl passive lysis buffer and 20 μl was taken for analysis. The Luciferase Assay Reagent II and Stop & Glo Reagent were prepared and added automatically by SpectraMax i3x Multi-Mode Detection Platform (Molecular Device) according to the manufacturer's protocol (Promega) and data was analyzed accordingly (Grentzmann, Ingram et al. 1998, McNabb, Reed et al. 2005).
The inhibition to sclerostin was dose dependent and the response was stable when the concentrations of aptscl 56 and 6 reached to 25 and 47.4 μg/ml, respectively. While treated with antibody, the response was still not stable with the concentration increasing to 20 mg/ml. Furthermore, the inhibition potency of aptscl 56, aptscl 6 and aptscl 3 was analyzed with non-linear curve fitting.
In general terms: Reporter assays use an easily measured gene product as a stand-in for the process of interest.

Data set [3] addresses T1, sclerostin (SOST). Put plainly: ELONA; PBS, 1 mM MgCl2, RT. The note with it: tags: His6 (stated for the SELEX protein); ELONA used purified recombinant human sclerostin. On the procedure:
as §1
(§3) Binding affinity and in vitro inhibition potency were performed using the same protocols in previous studies.
This is another data set of the same source.

Data set [4] addresses T2, sclerostin (SOST), expressed from …. Briefly: cell_activity; TOP-Wnt luciferase reporter; stated as inhibition potency.
In data set [5] the target is T1, sclerostin (SOST). Put plainly: ELONA; PBS, 1 mM MgCl2, RT. The note with it: tags: His6 (stated for the SELEX protein); ELONA used purified recombinant human sclerostin. The source holds these as a separate data set.
The target in data set [6] is T2, sclerostin (SOST), expressed from …. Briefly: cell_activity; TOP-Wnt luciferase reporter, MC3T3-E1. As for the experimental part:
as §2, §3
This is another data set of the same source.

Data set [7] addresses T1, sclerostin (SOST). Briefly: ELONA; PBS, 1 mM MgCl2, RT; Table 2 gives 0.02 nM. The note with it: tags: His6 (stated for the SELEX protein); ELONA used purified recombinant human sclerostin. As for the experimental part:
as §1, with “100 μl streptavidin-HRP/goat anti-human IgG Fc-HRP (1:10000 dilute into PBST+0.1% BSA) was added to each well and incubated for 30/60 min and washed with PBST+0.1% BSA for 4 times. 50 μl TMB was added to each well and incubated for 20 min. The reaction was stopped by adding 50 μl 2 M H₂SO₄.” left out, “A non-linear curve fitting model Hyperbl was used to plot is the binding curve. Equation of Hyperbl model is y=P1*x/(P2+x) and P2 is the Kd value.” left out

Data set [8] concerns the target T1, sclerostin (SOST). Briefly: ELONA; PBS, 1 mM MgCl2, 0.1% Tween 20, 0.1% BSA, RT. As to conditions: tags: His6 (stated for the SELEX protein); ELONA used purified recombinant human sclerostin. On the procedure:
as §1, with “100 μl streptavidin-HRP/goat anti-human IgG Fc-HRP (1:10000 dilute into PBST+0.1% BSA) was added to each well and incubated for 30/60 min and washed with PBST+0.1% BSA for 4 times. 50 μl TMB was added to each well and incubated for 20 min. The reaction was stopped by adding 50 μl 2 M H₂SO₄.” left out, “A non-linear curve fitting model Hyperbl was used to plot is the binding curve. Equation of Hyperbl model is y=P1*x/(P2+x) and P2 is the Kd value.” left out

T1 sequence (Q9BQB4 24-213): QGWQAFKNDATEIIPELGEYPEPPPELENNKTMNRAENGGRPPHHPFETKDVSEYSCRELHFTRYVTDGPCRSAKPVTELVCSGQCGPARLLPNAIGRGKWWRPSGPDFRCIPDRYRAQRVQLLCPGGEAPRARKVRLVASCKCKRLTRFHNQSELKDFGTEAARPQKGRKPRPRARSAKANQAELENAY
T2 sequence (Q9BQB4 24-213): as above

B1: aptscl 6 (ssDNA)
DNA: CGTACGGTCGACGCTAGCTGGAAGGGTGGGGGCGGGGGGTCCTCGCCTCGAACGTACGCACGTGGAGCTCGGATCC
Usually Kd stands for the concentration at which binding is half-saturated. What is called EC50 is the concentration needed to bring the measured effect to its halfway point. On to B1, for which, in the data set with sclerostin (SOST) [1], the Kd was found to be 4.2 nM. Besides, it took 36.8 mg/L to reach a half-maximal effect in data set [2] (EC50). GTCGACGCTAGCTGTTGTACATCGCCTTACGCACGTG (ssDNA) [aptscl 3-4]: the Kd with sclerostin (SOST) [3] stood at 0.22 nM.

Molecule CGGGGTGTGGGTTCGTCGTTAGCTTGATTTGGCAGCTGCCC (ssDNA, 2'-OMe at first four (CGGG) and last four (GCCC) nucleotides; 3' idT) [modified aptscl 56] gave a concentration for a half-maximal effect (EC50) in data set [4] of 14 mg/L. The dissociation constant Kd in the data set with sclerostin (SOST) [5] is 6.55 nM.

B2: aptscl 32 (ssDNA)
DNA: CGTACGGTCGACGCTAGCTGTGTTAATCGCCGTACCTCCACGTGGAGCTCGGATCC
In the case of B2, in the data set with sclerostin (SOST) [1], the equilibrium dissociation constant (Kd) came out at 0.18 nM.

GCTAGCTGTTGTACATCGCCTTACGCACGTG (ssDNA) [aptscl 3-5] showed a half-maximal effective concentration (EC50) in data set [6] of 28.4 mg/L. In the data set with sclerostin (SOST) [3], the Kd worked out at 0.22 nM. Consider GCTAGCTGTTGTACATCGCCTTACGCACGTG (ssDNA, 2'-OMe at first four (GCTA) and last four (CGTG) nucleotides; 3' idT) [modified aptscl 3-5], for which the concentration for a half-maximal effect (EC50) in data set [4] amounted to 11 mg/L. Besides, the dissociation constant (Kd) with sclerostin (SOST) [5] was found to be 0.54 nM. Consider GCTAGCTGTTGTACATCGCCTTACGCACGTGGAGCTC (ssDNA) [aptscl 3-3], for which the Kd in the data set with sclerostin (SOST) [3] is 0.2 nM.

B3: aptscl 8 (ssDNA)
DNA: CGTACGGTCGACGCTAGCCGGCGAAATTGCTACCACGTGGAGCTCGGATCC
Regarding B3, the dissociation constant Kd with sclerostin (SOST) [1] was determined as 0.005 nM.

B4: aptscl 3 (ssDNA)
DNA: CGTACGGTCGACGCTAGCTGTTGTACATCGCCTTACGCACGTGGAGCTCGGATCC
Regarding B4, the Kd with sclerostin (SOST) [7] was determined as 0.04 nM. In addition, the EC50 in data set [2] stood at 18.2 mg/L. Take CGTACGGTCGACGCTAGCTGTTGTACATCGCCTTACGCACGTGGAGCTC (ssDNA) [aptscl 3-2]: in the data set with sclerostin (SOST) [3], the dissociation constant (Kd) came to 0.52 nM.

B5: aptscl 29 (ssDNA)
DNA: CGTACGGTCGACGCTAGCCGGAGACCTGAGGTTCACGTGGAGCTCGGATCC
B5: the dissociation constant (Kd) with sclerostin (SOST) [1] stood at 0.28 nM.

B6: aptscl 12 (ssDNA)
DNA: CGTACGGTCGACGCTAGCCGTTGACTCGTTGCTACACGTGGAGCTCGGATCC
With B6, the Kd in the data set with sclerostin (SOST) [1] was 0.005 nM. The same measure, in the same setting: in the case of CCCAGACGAGACACCTCATGCTTTTCCCCGGGGGAGGGGTAT (ssDNA) [aptscl 132] it was 42.2 nM.

B7: aptscl 51 (ssDNA)
DNA: CGTACGGTCGACGCTAGCTGGGGGTAGGGGGTCCTTGGCTACGGTGATTCGGATGTGACACGTGGAGCTCGGATCC
B7: the equilibrium dissociation constant (Kd) with sclerostin (SOST) [1] came out at 62.2 nM. On to CGGGGTGTGGGTTCGTCGTTAGCTTGATTTGGCAGCTGCC (ssDNA) [aptscl 56], for which the Kd in the data set with sclerostin (SOST) [8] was 43.1 nM. Moreover, the EC50 in data set [2] was 19.7 mg/L.

B8: aptscl 5 (ssDNA)
DNA: CGTACGGTCGACGCTAGCTGTTGTTCATCGACTTGACGCACGTGGAGCTCGGATCC
Regarding B8, in the data set with sclerostin (SOST) [1], the Kd amounted to 0.005 nM.

B9: aptscl 1 (ssDNA)
DNA: B8 DNA with G20C, C32T, T33C, T34C, G35T
For the molecule B9, the dissociation constant (Kd) with sclerostin (SOST) [1] was determined as 0.02 nM. In the case of GTCGACGCTAGCTGTTGTACATCGCCTTACGCACGTGGAGCTCGGATCC (ssDNA) [aptscl 3-1], the Kd in the data set with sclerostin (SOST) [3] was 0.86 nM.

B10: aptscl 9 (ssDNA)
DNA: CGTACGGTCGACGCTAGCTGGGGGTAGGGGGACCCTGGCTAGTTAGTCACCGTTTCGACACGTGGAGCTCGGATCC
B10: the dissociation constant (Kd) with sclerostin (SOST) [1] was 3.4 nM.

B11: aptscl 22 (ssDNA)
DNA: CGTACGGTCGACGCTAGCTGGGTTTATCGACTAGTTCCACGTGGAGCTCGGATCC
On to B11, for which the equilibrium dissociation constant (Kd) in the data set with sclerostin (SOST) [1] came out at 0.76 nM.

B12: aptscl 2 (ssDNA)
DNA: CGTACGGTCGACGCTAGCCAGCCAAAGACAGAGATGCACGTGGAGCTCGGATCC
Turning to B12, the equilibrium dissociation constant (Kd) with sclerostin (SOST) [1] is 0.006 nM.
